Reference: paper doi:10.1101/2021.11.02.466974 (bioRxiv, 2021)

Experiments:
[1] = molecular target: the molecule itself; assay: Western blot of lysate under non-denaturing conditions
[2] = molecular target: M1-linked diUb (UniProt P0CG48); assay: ITC
[3] = molecular target: monoUb (UniProt P0CG48 1-76); assay: ITC
[4] = molecular target: the molecule itself; assay: SEC

binding result [2] | binding result [3] | Binder | stoichiometry N [1] | binding result [4]
– | – | mouse N4BP1 (613-893) in cell lysate (dimerization test of Fig. 2B) (domain or fragment) ADLKHIVIDGSNVAITHGLKKFFSCRGIAIAVEYFWKLGNRNITVFVPQWRTRRDPNITEQHFLTQLQELGILSLTPARMVFGERIASHDDRFLLHLADKTGGIIVTNDNFREFVTESVSWREIITKRLLQYTFVGDIFMVPDDPLGRNGPRLEEFLRKEAFLRHMQPLLNALPSVGTFDPGFRSPSTQVANNSHQPPPRIQTSSSPWLPQQSHFTALATLPSMQQNPPLPAQRSSAETSELREALLKIFPDSEQKLKIDQILAAHPYMKDLNALSALVLD | 2 | –
binds | binds | ETSELREALLKIFPDSEQKLKIDQILAAHPYMKDLNALSALVLD (domain or fragment) [isolated N4BP1 CUE domain (residues 850-893) used for ITC, NMR and analytical gel filtration] | – | binds
